Assay [1] deals with T1, YpTesB (TesB acyl-CoA thioesterase from Y. pestis) (Yersinia pestis, UniProt A0A3N4BCC7). The note with it: 100 mM phosphate pH 8.0, 0.1 mM DTNB.
Assay [2] concerns the target T1, YpTesB (TesB acyl-CoA thioesterase from Y. pestis). The settings on record: 2.2 A; crystals grown with 1 mM octanoyl-CoA, sodium malonate pH 7.0; CoA between two adjacent chains, in two of four sites.
Assay [3] deals with TesB acyl-CoA thioesterase from Yersinia pestis (Yersinia pestis). Put plainly: AUC.
The target is the same in assay [4]. Put plainly: crystal structure.
For assay [5] the target is unchanged. Put plainly: SEC.
For assay [6] the target is unchanged. Put plainly: small-angle X-ray scattering (SAXS).

For orientation: stoichiometry N means the number of molecules, sites or subunits per partner or assembly.

`CCCCCCCCCC(=O)SCCNC(=O)CCNC(=O)[C@H](O)C(C)(C)COP(=O)(O)OP(=O)(O)OC[C@H]1O[C@@H](n2cnc3c(N)ncnc32)[C@H](O)[C@@H]1OP(=O)(O)O` [C10, decanoyl-CoA]: the “DTNB assay of released thiol, 412 nm” value in assay [1] was “The highest activity was exhibited towards medium-chain acyl-CoAs (C6–C10)”.

With `CC(C)(COP(=O)(O)OP(=O)(O)OC[C@H]1O[C@@H](n2cnc3c(N)ncnc32)[C@H](O)[C@@H]1OP(=O)(O)O)[C@@H](O)C(=O)NCCC(=O)NCCS` [CoA], the X-ray crystallography result in assay [2] was “revealing the same quaternary arrangement of domains as the apo form with density for two CoA molecules”.

On to “TesB acyl-CoA thioesterase from Yersinia pestis (enzyme)”, for which the stoichiometry N in assay [3], in assay [4], in assay [5] and in assay [6] was 4 each time.

The values above are taken from article PMC4388271 (Acta Crystallographica Section D: Biological Crystallography, 2015).
